T1: soluble human CD73 (Homo sapiens, UniProt P21589)
T1 construct: The ectodomain of CD73 (aa 27-549) was expressed as a recombinant protein with a C-terminal His6× tag; His6 (C); made in house; host or cells: transiently transfected HEK cells
T1 sequence (P21589 27-549): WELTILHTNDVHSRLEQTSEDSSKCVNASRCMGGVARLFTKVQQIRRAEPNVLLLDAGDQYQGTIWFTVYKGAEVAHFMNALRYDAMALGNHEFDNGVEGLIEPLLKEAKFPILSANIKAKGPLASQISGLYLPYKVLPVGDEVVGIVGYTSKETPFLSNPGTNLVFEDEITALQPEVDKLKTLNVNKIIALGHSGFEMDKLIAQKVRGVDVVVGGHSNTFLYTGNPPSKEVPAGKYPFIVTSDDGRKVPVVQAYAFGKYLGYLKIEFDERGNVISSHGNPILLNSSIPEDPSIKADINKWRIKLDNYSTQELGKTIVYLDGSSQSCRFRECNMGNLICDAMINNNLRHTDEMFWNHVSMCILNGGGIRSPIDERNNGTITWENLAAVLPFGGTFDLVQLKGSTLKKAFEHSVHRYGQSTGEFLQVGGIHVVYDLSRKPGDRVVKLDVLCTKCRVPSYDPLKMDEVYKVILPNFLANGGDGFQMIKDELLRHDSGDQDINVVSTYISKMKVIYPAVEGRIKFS

T2: human CD73 on cells (CD73-transfected HEK cells; native on PBMCs; OCI-AML3 cells) (human, UniProt P21589 27-549)
T2 construct: also called NT5E; gene ID 4907
T2 sequence: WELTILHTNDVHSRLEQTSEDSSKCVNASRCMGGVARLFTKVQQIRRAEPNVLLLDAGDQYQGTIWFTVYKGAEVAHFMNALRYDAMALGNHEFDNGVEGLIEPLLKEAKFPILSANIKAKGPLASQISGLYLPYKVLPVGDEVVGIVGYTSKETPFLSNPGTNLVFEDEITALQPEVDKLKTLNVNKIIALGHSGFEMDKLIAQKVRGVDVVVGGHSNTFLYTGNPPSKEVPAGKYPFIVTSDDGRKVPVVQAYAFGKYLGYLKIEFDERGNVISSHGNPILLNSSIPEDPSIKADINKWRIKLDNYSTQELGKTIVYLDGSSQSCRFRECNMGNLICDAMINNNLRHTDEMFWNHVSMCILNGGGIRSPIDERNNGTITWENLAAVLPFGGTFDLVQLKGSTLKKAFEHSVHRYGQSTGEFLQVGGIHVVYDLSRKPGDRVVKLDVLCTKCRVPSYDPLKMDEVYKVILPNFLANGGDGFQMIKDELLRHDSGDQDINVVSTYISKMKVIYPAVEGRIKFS

T3: recombinant human CD73 ectodomain (aa 27-549) with C-terminal His6x tag (human, UniProt P21589 27-549)
T3 construct: also called soluble recombinant human CD73; soluble human CD73
T3 sequence: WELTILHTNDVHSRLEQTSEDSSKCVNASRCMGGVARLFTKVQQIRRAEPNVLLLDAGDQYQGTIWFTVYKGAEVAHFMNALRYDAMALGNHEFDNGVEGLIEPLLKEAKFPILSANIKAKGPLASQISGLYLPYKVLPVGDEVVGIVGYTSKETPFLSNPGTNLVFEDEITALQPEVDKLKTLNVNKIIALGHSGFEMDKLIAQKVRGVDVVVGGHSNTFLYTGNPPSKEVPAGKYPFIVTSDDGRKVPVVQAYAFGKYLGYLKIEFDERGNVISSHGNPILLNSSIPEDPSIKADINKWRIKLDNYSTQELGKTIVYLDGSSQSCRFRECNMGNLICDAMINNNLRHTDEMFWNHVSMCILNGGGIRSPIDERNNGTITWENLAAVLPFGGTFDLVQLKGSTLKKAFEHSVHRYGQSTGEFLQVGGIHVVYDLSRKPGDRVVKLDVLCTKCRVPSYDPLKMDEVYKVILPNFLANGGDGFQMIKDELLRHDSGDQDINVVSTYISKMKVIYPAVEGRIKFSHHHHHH


Legend:
soluble human CD73 [1] = molecular target: T1, soluble human CD73; assay: AMP hydrolysis by soluble CD73, DPEA-Napht-Azide fluorescence assay; type: biochemical; conditions: 50 ng CD73, 30 min pre-incubation with 10 μl hcAb supernatant, 1 mM AMP
Protocol: Recombinant human CD73 (50 ng) was pre-incubated for 30 min with hcAbs at RT in 96 well plates before addition of AMP and DPEA-Napht-Azide. Fluorescence signals were detected every 50 seconds for 30 repeats. ARFU values (>10^3/min) were calculated for a 10 min interval during the linear phase (from 5 min to 15 min) using Prism software (Graphpad). A non-specific rabbit IgG hcAb was used as control.
• 4.1 CD73 catalyzes the hydrolysis of AMP to adenosine. This reaction can be monitored by the shift in fluorescence intensity of DPEA-Napht-Azide. This property was used to determine whether hcAbs could interfere with the enzymatic activity of CD73. Soluble recombinant human CD73 (50 ng) was pre-incubated for 30 min with Nbs or hcAbs (10 μl HEK-6E cell supernatant containing 10-100 μg/ml hcAb) at RT in 96 well plates before addition of AMP (Sigma) to a final concentration of 1 mM and of DPEA-Napht-Azide to a final concentration of 50 μM. • 4.2 Fluorescence signals were recorded in white Nunc MicroWell plates (Nunc, 136101) on a Victor III plate reader (Perkin Elmer) (Exicitation filter: F485, Emission Filter: F535; CW-Lamp energy: 40000, counting time: 0.1 s). Data analyses were performed using Prism (Graphpad).
Soluble recombinant human CD73 (50 ng) was pre-incubated for 30 min with CD73-specific hcAbs or an irrelevant control hcAb (10 μl HEK-6E cell supernatant) at RT in 96 well plates before addition of AMP (Sigma) to a final concentration of 1 mM and of DPEA-Napht-Azide to a final concentration of 50 μM. Fluorescence signals were detected every 50 seconds for 30 repeats. Data analyses were performed using Prism (Graphpad).

soluble human CD73 [2] = molecular target: T1, soluble human CD73; assay: Off-rates of soluble CD73 from immobilized Nb-rbIgG hcAb on Octet BLI; type: binding; conditions: soluble human CD73 ectodomain 200 ng/μl as analyte; Nb-rbIgG hcAb immobilized on protein A biosensor
Protocol: (§1) The binding off-rate constants of bivalent hcAbs to human and mouse CD73 protein were determined by […] kinetic analysis on Octet RED96 (ForteBio). Immobilization of rabbit IgG hcAbs on the protein A-biosensor surface was done in HEK-6E cell supernatant, and regeneration of analytes was done with 100 mM Glycin pH=2.5. Recombinant mouse or human CD73 ectodomain was used as analytes and tested at a saturating dose of 200 ng/μl. Sensorgrams were fitted using least square regression in association than dissociation Model in Prism8 (Graphpad).

[3] = molecular target: T2, human CD73 on cells (CD73-transfected …); assay: flow cytometry, human CD73-expressing cells; competitor: human IgG hcAb SB139
Protocol: (§2) The binding specificities of the purified hcAbs were determined by flow cytometry using HEK cells transiently co-transfected with expression vectors for GFP and either mouse CD73, human CD73 or a control protein (CD39). 1×10⁶ cells were incubated with 10 μl of the Nb-rbIgG hcAb containing HEK-6E cell supernatants for 30 min at 4° C. […] The cells were resuspended in PBS and analyzed by flow cytometry on FACS Canto or FACS Celesta (BD Biosciences, Heidelberg). Data evaluation was conducted using the software FlowJo (Treestar, Stanford, US).
(§3) To evaluate the epitopes on the CD73 protein recognized by different VHHs, representative rabbit IgG hcAbs were binned against a set of human IgG hcAbs, and bound hcAbs were detected with a PE-conjugated anti-rabbit IgG secondary antibody. Cells were pre-incubated with excess human IgG hcAbs for […] at RT to block specific epitopes before addition of rabbit IgG hcAbs as detectors and further incubation for 15 min at RT. Cells were washed, and bound antibodies were detected with PE-conjugated anti-rabbit IgG polyclonal antibody. Cells were washed and analyzed by flow cytometry on a BD-FACS Canto. Data were analyzed using the FlowJo software (Treestar). Lack of blockade by a non-binding control human IgG hcAb served as negative control (unblocked), and blockade of binding with the same VHH carrying human IgG hcAb as the rabbit IgG hcAb used for detection served as positive controls for blocking. Values for blocking were determined by comparing the mean fluorescence intensities (MFIs) of PE staining of transfected cells for unblocked vs blocked rabbit hcAbs using the formula: inhibition (%)=100−(MFI (blocked)/MFI MFI(unblocked)*100). The values were rounded to whole percentages.

[4] = molecular target: T2, human CD73 on cells (CD73-transfected …); assay: flow cytometry, human CD73-expressing cells; competitor: MEDI9447
Protocol: as §2, §3

[5] = molecular target: T2, human CD73 on cells (CD73-transfected …); assay: flow cytometry, human CD73-expressing cells; competitor: human IgG hcAb SB143
Protocol: as §2, §3

[6] = molecular target: T2, human CD73 on cells (CD73-transfected …); assay: flow cytometry, human CD73-expressing cells; competitor: human IgG hcAb SB121
Protocol: as §2, §3

[7] = molecular target: T2, human CD73 on cells (CD73-transfected …); assay: flow cytometry, human CD73-expressing cells; competitor: human IgG hcAb SB96
Protocol: as §2, §3

[8] = molecular target: T2, human CD73 on cells (CD73-transfected …); assay: flow cytometry, human CD73-expressing cells; competitor: human IgG hcAb SB116
Protocol: as §2, §3

[9] = molecular target: T3, recombinant human CD73 ectodomain (aa …); assay: BLI (Octet), immobilized Nb-rbIgG hcAb, soluble human CD73 as analyte
Protocol: as §1

[10] = molecular target: T2, human CD73 on cells (CD73-transfected …); assay: flow cytometry, human CD73-expressing cells; competitor: IPH5301
Protocol: as §2, §3

[11] = molecular target: T2, human CD73 on cells (CD73-transfected …); assay: flow cytometry, human CD73-expressing cells; competitor: human IgG hcAb SB141
Protocol: as §2, §3

Molecule	Kdis (soluble human CD73 [2]) [s⁻¹]	percent inhibition of binding [3] [%]	percent inhibition of binding [4] [%]	percent inhibition of binding [5] [%]	percent inhibition of binding [6] [%]	percent inhibition of binding [7] [%]	percent inhibition of binding [8] [%]	koff [9] [s⁻¹]	percent inhibition of binding [10] [%]	percent inhibition of binding [11] [%]	effect on hydrolysis of AMP by soluble CD73 (soluble human CD73 [1])
SB107: CD73-specific alpaca VHH clone, family 1, SEQ ID NO:66; tested as rabbit IgG hcAb (antibody, left off: a dimerising Fc or GST, tested as rabbit IgG hcAb) heavy: QVQLQESGGGLVQPGGSLRLSCAASGFTLDYLTIGWFRQAPGKEREGVSCINSNGGSTIYADSVKGRLTISRDNAKNTVYLQINSLKPDDTAVYFCAAQKYYYCSGRVEVYDYWGQGIQVTVSS											inhibited CD73 catalyzed hydrolysis of AMP
SB108: CD73-specific alpaca VHH clone, family 1, SEQ ID NO:67; tested as rabbit IgG hcAb (antibody, left off: a dimerising Fc or GST, tested as rabbit IgG hcAb) heavy: QVKLQESGGGLVHSGGSLRLSCAVSGFALDYYTIGWFRQAPGKEREGVSCISSSGSSTNYADSMKGRLTISRDNAKNTVYLQMNSLKPEDTAVYYCAAQRYYYCSDKVAVYDYWGQGTQVTVSS	9.7e-05										inhibited CD73 catalyzed hydrolysis of AMP

The next lines start with results.

Kdis (soluble human CD73 [2]) [s⁻¹]	percent inhibition of binding [3] [%]	percent inhibition of binding [4] [%]	percent inhibition of binding [5] [%]	percent inhibition of binding [6] [%]	percent inhibition of binding [7] [%]	percent inhibition of binding [8] [%]	koff [9] [s⁻¹]	percent inhibition of binding [10] [%]	percent inhibition of binding [11] [%]	Molecule	effect on hydrolysis of AMP by soluble CD73 (soluble human CD73 [1])
0.00035										SB115: CD73-specific alpaca VHH clone, family 1, SEQ ID NO:63; tested as rabbit IgG hcAb (antibody, left off: a dimerising Fc or GST, tested as rabbit IgG hcAb) heavy: DVQLQASGGGLVQPGGSLRLSCVVSGFTLDYYTIGWFRQAPGKEREGVSCINSSGGVTNYADSVKGRFTISRDNAKNTVYLQMNSLKSEDTAVYYCAAQKYYYCSRKGEVYDSWGQGTQVTVSS	inhibited CD73 catalyzed hydrolysis of AMP
	-7	26	66	-1	13	16	0.00045	40	84	SB141 rabbit IgG hcAb (Fc fusion, not shown: hinge and Fc-domains of rabbit IgG) heavy: QVQLVESGGGLVQPGGSLRLSCAASGFTFINYHMSWLRQAPGKGLEWVSEIHSRGDITSYTNSVKGRFTISRDNAKNTLYLQMNSLKFDDTAVYYCARSRDLFNEGEYDYWGRGTQVTVSS	
	16	98	91	13	100	97	0.0013	99	35	SB143 rabbit IgG hcAb (Fc fusion, not shown: hinge and Fc-domains of rabbit IgG) heavy: QVQLVESGGGLVQAGGSLRLSCAASGRTFSRSTMGWFRQAPGKERVFVAAIRWIGGTTTYGDSVKGRFTISVDNAKNTLYLQMNSLKPEDTAVYYCAATAGGPYYLGGRDILYDYWGQGTQVTVSS	

Reference: US20240417484A1, “ANTIGEN-BINDING POLYPEPTIDES AGAINST CD73” (UNIVERSITÄTSKLINIKUM HAMBURG-EPPENDORF, priority 2021, published 2024)
